Measurements taken from publication PMC12275187, “CpgD is a phosphoglycerate cytidylyltransferase required for ceramide diphosphoglycerate synthesis” (The Journal of Biological Chemistry, 2025).

T1: CpgD (CCNA_01210) (Caulobacter vibrioides, UniProt A0A0H3C7D9)
T1 construct: expressed in E. coli ER2566; primers encode N-terminus MQPVKT, C-terminus EAEAV
T1 sequence (A0A0H3C7D9 1-253): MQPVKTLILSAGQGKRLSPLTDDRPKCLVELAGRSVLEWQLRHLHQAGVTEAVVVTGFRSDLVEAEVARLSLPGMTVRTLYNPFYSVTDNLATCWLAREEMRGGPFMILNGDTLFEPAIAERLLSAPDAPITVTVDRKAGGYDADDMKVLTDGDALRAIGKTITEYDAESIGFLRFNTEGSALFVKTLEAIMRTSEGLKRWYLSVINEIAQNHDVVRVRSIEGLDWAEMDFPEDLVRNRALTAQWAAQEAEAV

B1: CpgD (CCNA_01210) (Caulobacter vibrioides NA1000) (protein)
chain: T1 sequence (A0A0H3C7D9 1-253)
notes: expressed in E. coli ER2566; primers encode N-terminus MQPVKT, C-terminus EAEAV

Experiments:
[1] = molecular target: T1, CpgD (CCNA_01210); assay: thermal shift assay (GloMelt dye); type: binding; conditions: 10 mM nucleotide, 50 mM MgCl2, 50 mM HEPES pH 7.5; Tm change only in figure
[2] = substrate: Nc1ccn([C@@H]2O[C@H](COP(=O)(O)OP(=O)(O)OP(=O)(O)O)[C@@H](O)[C@H]2O)c(=O)n1; assay: HPAEC quantification of CDP-glycerate; type: biochemical, Caulobacter vibrioides
From the text: (§1) HPAEC quantification of CDP-glycerate on CpgD (CCNA_01210)

[3] = substrate: O=C(O)[C@@H](CO)OP(=O)(O)O; assay: HPAEC quantification of CDP-glycerate; type: biochemical, Caulobacter vibrioides; conditions: 10 mM CTP, 50 mM MgCl2, 50 mM HEPES pH 7.5, 45 min; pH 7.5
From the text: as §1

[4] = substrate: O=C(O)[C@H](CO)OP(=O)(O)O; assay: HPAEC quantification of CDP-glycerate; type: biochemical, Caulobacter vibrioides; conditions: 10 mM CTP, 50 mM MgCl2, 50 mM HEPES pH 7.5, 45 min; pH 7.5
From the text: as §1

[5] = substrate: O=C(O)[C@H](O)COP(=O)(O)O; assay: HPAEC quantification of CDP-glycerate; type: biochemical, Caulobacter vibrioides; conditions: 10 mM CTP, 50 mM MgCl2, 50 mM Tris pH 8.0, 3.5 h; pH 8.0
From the text: as §1

[6] = 10 mM 3-phosphoglycerate, 50 mM MgCl2, 50 mM Tris pH 8.0, 3.5 h, Michaelis-Menten fit, pH 8.0
[7] = 10 mM D-2-phosphoglycerate, 50 mM MgCl2, 50 mM HEPES pH 7.5, 45 min, Hill fit, cooperative (Hill coefficient 2.5), pH 7.5

Molecule | Tm [1] | Km [2, 6] | Vmax [2, 6] | K0.5 [2, 7] | Vmax [2, 7] | Km [3] | Vmax [3] | Km [4] | Vmax [4] | Km [5] | Vmax [5]
Nc1ccn([C@@H]2O[C@H](COP(=O)(O)OP(=O)(O)OP(=O)(O)O)[C@@H](O)[C@H]2O)c(=O)n1 [CTP] | increase in the melting temperature of the protein was only observed upon addition of CTP | – | – | – | – | – | – | – | – | – | –
Nc1ncnc2c1ncn2[C@@H]1O[C@H](COP(=O)(O)OP(=O)(O)OP(=O)(O)O)[C@@H](O)[C@H]1O [ATP] | we consistently measured a lower melting temperature in the presence of ATP | – | – | – | – | – | – | – | – | – | –
B1 | – | 4.8 ± 0.9 mM | 0.4 µmol/min/mg | 6.4 ± 0.8 mM | 3.6 µmol/min/mg | 0.84 ± 0.16 mM | 3.2 µmol/min/mg | 3.1 ± 0.6 mM | 1.5 µmol/min/mg | 10.9 ± 0.7 mM | 0.72 µmol/min/mg
